Assay results taken from patent publication US20130202615A1 (VACCINEX, published 2013).

Columns and labels:
[1] = molecular target: T1, VEGF (UniProt P15692-4 27-191, limits assumed); assay: Biacore SPR, both antibodies tested under the same conditions
T1 construct: also called VEGF-A; vascular endothelial growth factor
Source text: (§1) Data was fit with a bivalent model for affinity determination.

[2] = molecular target: T1, VEGF; assay: Biacore SPR, VEGF immobilized on the chip, antibody as analyte, bivalent model fit
Source text: as §1

[3] = molecular target: T1, VEGF; assay: VEGFR1 blocking ELISA: antibody pre-incubated with VEGF, added to a VEGFR1-coated plate
[4] = molecular target: T1, VEGF; assay: VEGFR2 blocking ELISA: antibody pre-incubated with VEGF, added to a VEGFR2-coated plate
[5] = molecular target: T1, VEGF; assay: summary table of MAb7392 characterization; affinity by Biacore, rounded form of the value in Table 2; summary Table 6, rounded value
Source text: as §1

[6] = molecular target: T1, VEGF; assay: competition ELISA: titrated antibody and biotinylated bevacizumab added to a VEGF-coated plate, bound biotinylated bevacizumab detected with Strep-HRP; competitor: biotinylated bevacizumab

T1 sequence (P15692 other isoform, or with tags, fused parts or gaps limits assumed): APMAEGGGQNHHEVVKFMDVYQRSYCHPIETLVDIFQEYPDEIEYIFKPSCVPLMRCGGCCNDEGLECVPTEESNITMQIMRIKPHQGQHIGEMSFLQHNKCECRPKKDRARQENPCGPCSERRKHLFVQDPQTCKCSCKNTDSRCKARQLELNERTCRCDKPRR

B1: MAb7392 (antibody, V domains shown)
VH: QVQLVQSGAELRKPGASVKISCKASGYSLTYYGMNWVRQAPGQGLEWMGWINTFTGDSTYAQDFTGRFVFSLDTSVSTAYLQISSLKAEDMAMYYCAKYPHYYGSSHWYFDVWGQGTTVTVSS
VL: EIVLTQSPATLSVSPGERATLSCRASQSVNSNLAWYQQKPGQAPRVLIYGASTRATGIPARFSGSGSGTEFTLTISSLQSEDFAVYYCQQYSDIPWTFGQGTKLEIK
notes: also called H7230 + L7104
With B1 the “fold better affinity than bevacizumab” value [1] was roughly 4 fold, the Kd [2] was 0.91 nM and the IC50 [3] was 0.08 nM. The IC50 [4] was 0.18 nM, the Kd [5] was 0.9 nM and the “IC50 (read off the curve)” value [6] was roughly 0.6 nM.
